Data as given in paper PMC7464098, “Conformational Equilibrium of NADPH–Cytochrome P450 Oxidoreductase Is Essential for Heme Oxygenase Reaction” (Antioxidants, 2020).

Experiments:
Conditions in all cases: both partners purified
[1] = biological target: T1, rat NADPH–cytochrome P450 oxidoreductase (soluble form) (rat, UniProt P00388 58-678); test: AUC; sedimentation equilibrium, equimolar mixtures (15 μM each for 147CC514; concentrations for rCPR and IAM/DTT-treated 147CC514 not told), 25 °C, 0.1 M potassium phosphate pH 7.4, 15,000 rpm, absorbance at 455 nm; apparent affinity
T1 construct: Holds FAD and FMN; The limit Met1-Ile57 is printed in the sentence on the 147CC514 cDNA; also called rCPR; CPR; source: E. coli, purified
T1 sequence (looked up): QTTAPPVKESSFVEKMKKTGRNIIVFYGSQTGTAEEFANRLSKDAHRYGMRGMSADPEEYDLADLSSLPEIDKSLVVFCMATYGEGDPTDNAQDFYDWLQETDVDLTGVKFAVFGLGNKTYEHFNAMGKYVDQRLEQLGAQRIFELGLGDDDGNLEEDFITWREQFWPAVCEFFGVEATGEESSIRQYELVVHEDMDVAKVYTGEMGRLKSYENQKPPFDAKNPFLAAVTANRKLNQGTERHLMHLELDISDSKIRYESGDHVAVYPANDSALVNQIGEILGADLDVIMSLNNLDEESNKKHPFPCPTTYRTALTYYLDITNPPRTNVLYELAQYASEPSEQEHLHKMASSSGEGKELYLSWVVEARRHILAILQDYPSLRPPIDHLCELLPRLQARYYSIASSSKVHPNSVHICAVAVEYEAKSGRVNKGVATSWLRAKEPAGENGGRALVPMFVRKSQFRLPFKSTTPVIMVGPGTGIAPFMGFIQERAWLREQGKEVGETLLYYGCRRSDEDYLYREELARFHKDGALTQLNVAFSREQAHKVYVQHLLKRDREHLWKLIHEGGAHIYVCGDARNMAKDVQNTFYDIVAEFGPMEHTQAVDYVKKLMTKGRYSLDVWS

[2] = biological target: rat CPR mutant with a disulfide bridge Cys147–Cys514 (closed-form stabilized CPR) (rat, UniProt P00388 58-678, Asp147 substituted with cysteine | Arg514 substituted with cysteine | Cys136Ala …, disulfide bond between Cys147 and Cys514); test: as above
IAM/DTT-treated 147CC514 = IAM/DTT-treated 147CC514 (rat, UniProt P00388 58-678, Asp147 substituted with cysteine | Arg514 substituted with cysteine | Cys136Ala …, disulfide bond between Cys147 and Cys514 cleaved, both cysteine residues alkylated (2-iodoacetamide)); test: as above
[3] = biological target: T2, rat CPR mutant lacking Thr236 to Glu239 of the hinge (open-form stabilized CPR) (rat, UniProt P00388 58-678, ΔTGEE (from Thr236 to Glu239 removed)); test: AUC; sedimentation equilibrium, 5 μM heme–rHO-1 plus 5 μM CPR sample, 25 °C, 0.1 M potassium phosphate pH 7.4, 15,000 rpm, absorbance at 455 nm; fit to HO-1 + CPR ⇄ HO-1•CPR
T2 construct: rat NADPH–cytochrome P450 reductase, soluble form without the membrane-spanning region (Met1-Ile57), four consecutive hinge residues Thr236 to Glu239 removed; Holds FAD and FMN; also called ΔTGEE; source: E. coli, purified
T2 sequence (looked up): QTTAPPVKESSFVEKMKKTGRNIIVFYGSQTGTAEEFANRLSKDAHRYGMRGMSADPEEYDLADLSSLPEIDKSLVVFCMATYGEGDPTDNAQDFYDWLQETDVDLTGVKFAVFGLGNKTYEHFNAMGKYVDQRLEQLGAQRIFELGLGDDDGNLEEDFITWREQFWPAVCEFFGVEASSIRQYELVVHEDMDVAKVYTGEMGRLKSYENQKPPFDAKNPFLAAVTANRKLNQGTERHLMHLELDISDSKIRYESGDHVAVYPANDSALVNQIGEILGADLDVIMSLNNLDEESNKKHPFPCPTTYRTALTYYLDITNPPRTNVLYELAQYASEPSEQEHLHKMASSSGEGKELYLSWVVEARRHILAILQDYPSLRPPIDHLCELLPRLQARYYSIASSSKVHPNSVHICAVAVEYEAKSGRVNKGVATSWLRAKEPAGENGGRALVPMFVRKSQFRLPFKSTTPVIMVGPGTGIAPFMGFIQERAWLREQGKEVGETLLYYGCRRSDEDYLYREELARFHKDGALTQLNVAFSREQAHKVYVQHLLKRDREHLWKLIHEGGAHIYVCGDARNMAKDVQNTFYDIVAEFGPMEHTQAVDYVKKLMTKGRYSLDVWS

B1: heme–rat heme oxygenase-1 complex (soluble form) (enzyme)
chain: MERPQLDSMSQDLSEALKEATKEVHIRAENSEFMRNFQKGQVSREGFKLVMASLYHIYTALEEEIERNKQNPVYAPLYFPEELHRRAALEQDMAFWYGPHWQEAIPYTPATQHYVKRLHEVGGTHPELLVAHAYTRYLGDLSGGQVLKKIAQKAMALPSSGEGLAFFTFPSIDNPTKFKQLYRARMNTLEMTPEVKHRVTEEAKTAFLLNIELFEELQALLTEEHKDQSPSQTEFLRQRPASLVQDTTSAETPRGKSQISTSSSQTP
notes: rat heme oxygenase-1 (HO-1), soluble form made by removing the membrane-spanning region; also called heme–rHO-1; heme–HO-1; source: E. coli, purified; reconstituted with 1.2 equiv. of heme, hydroxyapatite column
Kd [1]: 62.1 ± 1.7 µM | Kd [2]: 111 ± 5 µM | Kd (IAM/DTT-treated 147CC514): 65.5 ± 17 µM | Kd [3]: 0.178 ± 0.077 µM
